The values below come from patent US20140157444A1 (COUNCIL OF SCIENTIFIC AND INDUSTRIAL RESEARCH, published 2014).

The target of test [1] is T1, hHDAC4-FLAG (human, UniProt P56524 1-1084, limits assumed).
T1 construct: Species is read from the prefix 'h' of the plasmid name; also called pCMX-hHDAC4-FLAG; not shown: FLAG tag
The test can be described thus: co-immunoprecipitation from co-transfected HEK 293 cells: anti-FLAG IP, anti-Myc blot. The source says:
(§1) FIG. 10. Identification of proteins interacting with WDR13. […] B) Immunolocalization of WDR13 protein in HELA cells transfected with pCMV-FLAG-Wdr13 (SEQ ID NO: 3) vector using anti FLAG antibody. C) Silver stained gel of immunoprecipitated proteins using anti FLAG antibody from HELA cells transfected with pCMV-FLAG control and pCMV-FLAG-Wdr13 vectors having SEQ ID NO: 3.
(§2) FIG. 11. Interactions of WDR13 with ERs, HDACs and PHIP1 A) HEK 293 cells were co-transfected with FLAG-Wdr13 (from the position 922 to 2443 in SEQ ID NO: 3) and GFP-ERα, grown in the presence or absence of estradiol. The cell lysate was immunoprecipitated with anti FLAG antibody and immunoblotted with anti GFP antibody. […] B) HEK 293 cells were co-transfected with FLAG-Wdr13 (from the position 922 to 2443 in SEQ ID NO: 3) and Myc-ERβ I (from the position 900-2673 in SEQ ID NO: 6), grown in the presence or absence of estradiol. The cell lysate was immunoprecipitated with anti FLAG antibody and immunoblotted with anti Myc antibody. […] C) HEK 293 cells were co-transfected with Myc-Wdr13 (from the position 900 to 2448 in SEQ ID NO: 4)/various FLAG-HDACs and the cell lysate was immunoprecipitated with anti FLAG antibody and immunoblotted with anti Myc antibody.

Test [2] addresses T2, mHDAC2-FLAG (mouse, UniProt P70288 1-488).
T2 construct: Species is read from the prefix 'm' of the plasmid name; also called pCMX-mHDAC2-FLAG; not shown: FLAG tag
The description is as above.
Source text: as §1, §2

T2 sequence (P70288 whole entry): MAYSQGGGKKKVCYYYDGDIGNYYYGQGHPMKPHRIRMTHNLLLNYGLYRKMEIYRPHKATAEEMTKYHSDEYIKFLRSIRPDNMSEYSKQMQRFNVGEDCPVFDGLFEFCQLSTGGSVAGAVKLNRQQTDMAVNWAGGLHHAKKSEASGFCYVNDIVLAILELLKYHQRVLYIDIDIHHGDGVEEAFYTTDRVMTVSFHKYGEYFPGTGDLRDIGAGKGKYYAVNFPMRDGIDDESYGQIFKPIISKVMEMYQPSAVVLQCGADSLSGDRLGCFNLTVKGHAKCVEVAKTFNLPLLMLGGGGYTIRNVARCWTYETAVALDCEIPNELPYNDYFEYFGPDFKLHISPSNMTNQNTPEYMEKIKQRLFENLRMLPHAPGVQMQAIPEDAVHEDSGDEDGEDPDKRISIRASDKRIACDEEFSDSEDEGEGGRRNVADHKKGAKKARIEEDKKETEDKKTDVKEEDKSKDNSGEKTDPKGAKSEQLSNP
T1 sequence (P56524 whole entry): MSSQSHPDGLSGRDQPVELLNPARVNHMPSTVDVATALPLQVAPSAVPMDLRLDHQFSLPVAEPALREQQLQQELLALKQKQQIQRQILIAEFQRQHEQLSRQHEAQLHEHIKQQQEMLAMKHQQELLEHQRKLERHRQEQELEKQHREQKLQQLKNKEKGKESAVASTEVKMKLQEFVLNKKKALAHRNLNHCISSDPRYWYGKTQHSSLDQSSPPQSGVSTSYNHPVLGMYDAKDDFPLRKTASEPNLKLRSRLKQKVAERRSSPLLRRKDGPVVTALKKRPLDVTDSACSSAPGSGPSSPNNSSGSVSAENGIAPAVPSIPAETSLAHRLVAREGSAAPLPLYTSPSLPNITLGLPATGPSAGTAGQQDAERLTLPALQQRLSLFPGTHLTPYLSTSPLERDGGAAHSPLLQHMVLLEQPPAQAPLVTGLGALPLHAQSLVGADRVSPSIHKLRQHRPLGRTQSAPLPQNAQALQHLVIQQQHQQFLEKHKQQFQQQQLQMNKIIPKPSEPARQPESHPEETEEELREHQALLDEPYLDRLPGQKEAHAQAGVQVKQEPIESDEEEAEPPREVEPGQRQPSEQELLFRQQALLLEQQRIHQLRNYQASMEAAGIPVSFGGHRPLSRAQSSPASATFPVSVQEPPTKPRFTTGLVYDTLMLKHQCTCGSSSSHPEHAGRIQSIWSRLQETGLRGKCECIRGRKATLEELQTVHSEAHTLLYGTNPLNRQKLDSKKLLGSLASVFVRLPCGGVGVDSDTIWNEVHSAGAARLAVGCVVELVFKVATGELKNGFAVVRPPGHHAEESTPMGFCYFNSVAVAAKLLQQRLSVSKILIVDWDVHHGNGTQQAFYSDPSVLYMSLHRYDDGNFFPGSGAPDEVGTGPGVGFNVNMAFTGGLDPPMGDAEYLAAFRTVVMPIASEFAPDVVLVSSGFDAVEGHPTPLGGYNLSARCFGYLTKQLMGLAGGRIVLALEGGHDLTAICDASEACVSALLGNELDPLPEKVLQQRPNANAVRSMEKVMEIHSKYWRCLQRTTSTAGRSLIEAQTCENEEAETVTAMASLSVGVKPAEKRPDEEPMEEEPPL

B1: Myc WDR13 fusion protein (other, mouse, UniProt Q91V09 1-485, looked up)
chain: MAAVWQQVLAVDARYNAYRTPTFPQFRTQYIRRRSQLLRENAKAGHPPALRRQYLRLRGQLLGQRYGPLSEPGSARAYSNSIVRSSRTTLDRMEDFEDDPRALGARGHRRSVSRGSYQLQAQMNRAVYEDRPPGSVVPTSVAEASRAMAGDTSLSENYAFAGMYHVFDQHVDEAVPRVRFANDDRHRLACCSLDGSISLCQLVPAPPTVLHVLRGHTRGVSDFAWSLSNDILVSTSLDATMRIWASEDGRCIREIPDPDGAELLCCTFQPVNNNLTVVGNAKHNVHVMNISTGKKVKGGSSKLTGRVLALSFDAPGRLLWAGDDRGSVFSFLFDMATGKLTKAKRLVVHEGSPVTSISARSWVSREARDPSLLINACLNKLLLYRVVDNEGALQLKRSFPIEQSSHPVRSIFCPLMSFRQGACVVTGSEDMCVHFFDVERAAKAAVNKLQGHSAPVLDVSFNCDESLLASSDASGMVIVWRREQK
notes: Overexpressed in HEK 293 cells; (mouse gene); also called pCMV-Myc-Wdr13; not shown: Myc peptide at the N-terminus, from the pCMV-Myc vector
B1: the binding result in test [1] and in test [2] was “no binding” in each case.
